# Data: publication PMC7126683 (Structure (London, England : 1993), 2005)
# B1: IBV-N218-329, recombinant C-terminal domain (residues 218-329) of the IBV nucleocapsid protein (domain or fragment, UniProt P69596 218-329, looked up)
# chain: KADEMAHRRYCKRTIPPNYRVDQVFGPRTKGKEGNFGDDKMNEEGIKDGRVTAMLNLVPSSHACLFGSRVTPKLQLDGLHLRFEFTTVVPCDDPQFDNYVKICDQCVDGVGT
# Molecular target: the molecule itself
# Test: SEC
protein,measurement,value
B1,stoichiometry N,2
